In patent publication US6846803B1, “Antagonists specific for the corticotropin-releasing factor receptor type 2 (CRFR2)” (priority 1998, dated 2005):
No end group written: not given here.

Columns and labels:
CRFR2α = target: T1, CRFR2α (Mus musculus, UniProt Q60748); settings: BALB/c mice; brain area exclusively expressing CRF2α-mRNA; cited from earlier work
T1 construct: from tissue; host or cells: lateral septum of BALB/c mice, in vivo

rCRFR1 = target: T2, rCRFR1 (Rattus norvegicus, UniProt P35353); assay: cAMP stimulation / inhibition of oCRF-stimulated cAMP production in HEK-rCRFR1 cells; assay type: cell-based; settings: HEK-rCRFR1 cells; difference significant
T2 construct: expressed in transfected cells; host or cells: HEK 293 cells, stably transfected (HEK-rCRFR1)
T2 sequence (P35353 24-415): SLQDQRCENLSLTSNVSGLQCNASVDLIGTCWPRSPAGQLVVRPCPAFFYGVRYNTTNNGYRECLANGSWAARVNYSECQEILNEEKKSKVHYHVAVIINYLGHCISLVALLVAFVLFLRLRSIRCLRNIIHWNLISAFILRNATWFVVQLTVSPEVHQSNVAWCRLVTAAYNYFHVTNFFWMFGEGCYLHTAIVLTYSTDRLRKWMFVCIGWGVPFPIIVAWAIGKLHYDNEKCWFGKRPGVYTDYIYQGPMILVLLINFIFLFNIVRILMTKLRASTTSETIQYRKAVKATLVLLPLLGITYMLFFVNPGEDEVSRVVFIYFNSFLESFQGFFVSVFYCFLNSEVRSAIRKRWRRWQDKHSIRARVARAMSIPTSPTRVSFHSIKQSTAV
Method in brief: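 HEK cells expressing rat CRFR1 or mouse CRFR2β were treated with CRF agonists, with or without antagonist at 1 μM or 10 nM, or with antagonist (1 μM) alone. Cells were lysed in 6% TCA (5 min, 100° C.), and cAMP was measured by RIA.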

[1] = target: mouse CRF receptor, type 2β (mCRFR2β) (mouse) (UniProt Q60748); assay: Kd(rCRFR1)/Kd(mCRFR2β) of the peptide normalised to that of astressin; radioligand displacement
[2] = target: T3, rat CRF receptor, type 1 (rCRFR1) (rat, UniProt P35353 24-415); assay: cell-based or functional assay
T3 sequence (looked up): T2 sequence (P35353 24-415)

[3] = target: T3, rat CRF receptor, type 1 (rCRFR1); assay: radioligand displacement; this end of the range tied by the Kd ratio of Table 3 (220.9/153.6)
Method: (§1) Binding assays were performed in 96-well MultiScreen plates (Millipore, Eschborn, Germany) with GF/B filters (pore size 1.0 μm). […] After incubation (60 min, 23° C.), membrane suspension was aspirated through the plate, followed by two washes with assay buffer (0.2 ml, 23°). Radioactivity of the punched filters was measured with a 1470 WIZARD automatic gamma counter (Berthold, Hannover). […] Statistical analysis was performed with ANOVA, and significant differences between groups were determined by post hoc comparison using the Dunn test.

[4] = target: T3, rat CRF receptor, type 1 (rCRFR1); assay: displacement of [125I-Tyr0]oCRF from HEK-rCRFR1 membranes
Method: as §1

T1 sequence (Q60748 whole entry): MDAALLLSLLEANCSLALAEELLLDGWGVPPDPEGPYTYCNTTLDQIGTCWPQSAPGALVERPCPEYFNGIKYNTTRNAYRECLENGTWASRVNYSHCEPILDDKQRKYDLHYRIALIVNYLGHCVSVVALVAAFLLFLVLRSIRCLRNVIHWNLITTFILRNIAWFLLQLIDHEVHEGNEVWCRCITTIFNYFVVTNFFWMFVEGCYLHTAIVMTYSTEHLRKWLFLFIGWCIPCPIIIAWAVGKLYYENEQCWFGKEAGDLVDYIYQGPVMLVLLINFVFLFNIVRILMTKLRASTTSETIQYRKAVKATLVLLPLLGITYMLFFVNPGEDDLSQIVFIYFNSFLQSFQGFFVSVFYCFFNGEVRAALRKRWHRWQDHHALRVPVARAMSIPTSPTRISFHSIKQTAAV

Molecule	CRF-mediated behavioral effects in the lateral septum (CRFR2α)	inhibitory potency towards rCRFR1 (rCRFR1)	Selectivity [1]	rel. IA (relative intrinsic activity), cAMP production, HEK-rCRFR1 cells [2]	rel. pot. (relative potency), inhibition of oCRF-stimulated cAMP production, HEK-rCRFR1 cells [2]	fold decrease of binding affinity against antisauvagine-30 (compound 11) [3] [fold]	Kd [4] [µM]
CC[C@H](C)[C@H](NC(=O)[C@@H](NC(=O)[C@H](CC(=O)O)NC(=O)[C@H](CC(C)C)NC(=O)[C@H](CC(C)C)NC(=O)[C@H](CC(C)C)NC(=O)[C@H](CCCNC(=N)N)NC(=O)[C@H](CC(N)=O)NC(=O)[C@H](CC(N)=O)NC(=O)[C@H](C)NC(=O)[C@H](C)NC(=O)[C@H](CCC(N)=O)NC(=O)[C@H](CCC(N)=O)NC(=O)[C@H](CCCCN)NC(=O)[C@H](CCC(=O)O)NC(=O)[C@H](CCCCN)NC(=O)[C@H](CCC(=O)O)NC(=O)[C@H](CCC(N)=O)NC(=O)[C@H](CCCCN)NC(=O)[C@H](CCC(=O)O)NC(=O)[C@@H](NC(=O)[C@H](CCC(=O)O)NC(=O)[C@@H](NC(=O)[C@H](CCSC)NC(=O)[C@H](CCCCN)NC(=O)[C@H](CCCNC(=N)N)NC(=O)[C@H](CC(C)C)NC(=O)[C@H](CC(C)C)NC(=O)[C@H](Cc1c[nH]cn1)NC(=O)[C@H](N)Cc1ccccc1)[C@@H](C)CC)[C@@H](C)CC)[C@@H](C)O)C(N)=O [[DPhe^11, His^12]Svg(11-40)]	inhibited	15 % of the potency of astressin					
YHLLRKMIEIEKQEKEKQQAANNRLLLDTI (ends and bridges not checked, also called compound 18) [[Tyr^11, His^12]Svg(11-40)]			31.6	0.03 relative, oCRF = 1.00	0.79 relative, oCRF = 1.00	1.4 to 5.9	0.221
